Like-named read-outs stand apart in the source and are kept apart here. Values belong to the binder of their own block, whether it stands above or below them.
What was measured:
Assay in all cases: two-hybrid library CCNG1;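 also: natural log of median RNA to DNA barcode read ratio; higher means stronger binding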
[1] = molecular target: T1, O9-bA; conditions: mean of both orientations
T1 chain: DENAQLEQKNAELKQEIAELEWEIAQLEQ

[2] = molecular target: T2, O3-bA
T2 chain: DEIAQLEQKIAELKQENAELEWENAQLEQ

[3] = molecular target: T3, O16-bA
T3 chain: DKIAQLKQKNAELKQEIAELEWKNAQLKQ

[4] = molecular target: T4, O6-bA
T4 chain: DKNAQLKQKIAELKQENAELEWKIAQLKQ

[5] = molecular target: T5, O11-bA
T5 chain: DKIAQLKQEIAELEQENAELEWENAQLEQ

[6] = molecular target: T6, O12-bA
T6 chain: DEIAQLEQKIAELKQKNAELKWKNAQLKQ

[7] = molecular target: T7, O13-bA
T7 chain: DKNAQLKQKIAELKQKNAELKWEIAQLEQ

[8] = molecular target: T8, O2-bA
T8 chain: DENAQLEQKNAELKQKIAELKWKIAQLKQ

[9] = molecular target: T9, O10-bA
T9 chain: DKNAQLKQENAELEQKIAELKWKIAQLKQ

[10] = molecular target: T10, O4-bA
T10 chain: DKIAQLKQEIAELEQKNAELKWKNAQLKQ

[11] = molecular target: T11, O14-bA
T11 chain: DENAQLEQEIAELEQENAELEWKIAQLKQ

[12] = molecular target: T12, O5-bA
T12 chain: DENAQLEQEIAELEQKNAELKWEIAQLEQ

[13] = molecular target: T13, O7-bA
T13 chain: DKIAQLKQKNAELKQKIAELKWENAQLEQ

[14] = molecular target: T14, O15-bA
T14 chain: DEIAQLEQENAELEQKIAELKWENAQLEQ

[15] = molecular target: T15, O8-bA
T15 chain: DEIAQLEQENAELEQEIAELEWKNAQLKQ

[16] = molecular target: T16, 4H3185-bH
T16 chain: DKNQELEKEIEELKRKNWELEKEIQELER

[17] = molecular target: T17, 4H2618-bH
T17 chain: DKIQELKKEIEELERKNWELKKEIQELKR

[18] = molecular target: T18, 4H2576-bH
T18 chain: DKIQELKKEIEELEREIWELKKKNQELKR

[19] = molecular target: T19, 4H717-bH
T19 chain: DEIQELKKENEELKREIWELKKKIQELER

[20] = molecular target: T20, 4H2610-bH
T20 chain: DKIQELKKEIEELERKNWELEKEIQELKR

[21] = molecular target: T21, 4H908-bH
T21 chain: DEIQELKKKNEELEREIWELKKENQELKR

[22] = molecular target: T22, 4H3782-bH
T22 chain: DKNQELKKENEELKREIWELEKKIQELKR

[23] = molecular target: T23, 4H3354-bH
T23 chain: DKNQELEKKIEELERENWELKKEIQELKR

[24] = molecular target: T24, 4H607-bA
T24 chain: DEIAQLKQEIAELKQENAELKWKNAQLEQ

[25] = molecular target: T25, 4H462-bH
T25 chain: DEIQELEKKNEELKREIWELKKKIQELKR

[26] = molecular target: T26, 4H687-bH
T26 chain: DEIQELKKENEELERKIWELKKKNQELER

[27] = molecular target: T27, 4H568-bH
T27 chain: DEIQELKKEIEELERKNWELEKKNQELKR

[28] = molecular target: T28, 4H370-bH
T28 chain: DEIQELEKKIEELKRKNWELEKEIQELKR

[29] = molecular target: T29, 4H2729-bH
T29 chain: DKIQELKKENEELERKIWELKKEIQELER

[30] = molecular target: T30, 4H3843-bH
T30 chain: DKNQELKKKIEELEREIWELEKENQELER

[31] = molecular target: T31, 4H72-bH
T31 chain: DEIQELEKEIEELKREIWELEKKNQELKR

[32] = molecular target: T32, 4H3855-bH
T32 chain: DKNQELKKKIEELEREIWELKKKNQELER

[33] = molecular target: T33, 4H967-bH
T33 chain: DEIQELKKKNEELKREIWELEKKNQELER

[34] = molecular target: T34, 4H607-bH
T34 chain: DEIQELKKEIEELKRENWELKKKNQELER

[35] = molecular target: T35, 4H2697-bH
T35 chain: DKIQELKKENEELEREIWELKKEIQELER

[36] = molecular target: T36, 4H4001-bA
T36 chain: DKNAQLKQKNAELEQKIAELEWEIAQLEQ

[37] = molecular target: T37, 4H1446-bH
T37 chain: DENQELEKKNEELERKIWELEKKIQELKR

[38] = molecular target: T38, 4H797-bH
T38 chain: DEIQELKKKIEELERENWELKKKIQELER

[39] = molecular target: T39, 4H918-bH
T39 chain: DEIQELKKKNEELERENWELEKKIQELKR

[40] = molecular target: T40, 4H3606-bH
T40 chain: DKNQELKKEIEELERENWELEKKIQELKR

[41] = molecular target: T41, 4H3427-bH
T41 chain: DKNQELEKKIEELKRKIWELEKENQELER

[42] = molecular target: T42, 4H754-bH
T42 chain: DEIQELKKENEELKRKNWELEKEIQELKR

[43] = molecular target: T43, 4H3112-bH
T43 chain: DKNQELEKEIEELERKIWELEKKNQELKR

[44] = molecular target: T44, 4H953-bH
T44 chain: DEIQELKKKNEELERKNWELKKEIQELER

[45] = molecular target: T45, 4H2442-bH
T45 chain: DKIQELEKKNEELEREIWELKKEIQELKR

[46] = molecular target: T46, 4H949-bA
T46 chain: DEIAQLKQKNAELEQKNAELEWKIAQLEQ

[47] = molecular target: T47, 4H454-bH
T47 chain: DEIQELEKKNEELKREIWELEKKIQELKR

[48] = molecular target: T48, 4H1828-bH
T48 chain: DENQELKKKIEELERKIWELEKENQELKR

[49] = molecular target: T49, 4H3189-bH
T49 chain: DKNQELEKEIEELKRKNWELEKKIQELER

[50] = molecular target: T50, 4H331-bH
T50 chain: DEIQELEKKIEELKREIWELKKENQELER

[51] = molecular target: T51, 4H4001-bH
T51 chain: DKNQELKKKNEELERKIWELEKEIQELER

[52] = molecular target: T52, 4H883-bH
T52 chain: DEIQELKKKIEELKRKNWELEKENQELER

[53] = molecular target: T53, 4H2667-bH
T53 chain: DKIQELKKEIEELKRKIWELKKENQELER

[54] = molecular target: T54, 4H1845-bH
T54 chain: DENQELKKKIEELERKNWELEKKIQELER

[55] = molecular target: T55, 4H338-bH
T55 chain: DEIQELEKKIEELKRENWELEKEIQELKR

[56] = molecular target: T56, 4H3638-bN
T56 chain: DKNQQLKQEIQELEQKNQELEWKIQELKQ

[57] = molecular target: T57, 4H3817-bN
T57 chain: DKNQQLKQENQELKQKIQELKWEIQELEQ

[58] = molecular target: T58, 4H619-bN
T58 chain: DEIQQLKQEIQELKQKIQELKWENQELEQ

[59] = molecular target: T59, 4H906-bN
T59 chain: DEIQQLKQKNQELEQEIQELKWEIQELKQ

[60] = molecular target: T60, 4H3974-bN
T60 chain: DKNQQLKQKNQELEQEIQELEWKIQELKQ

[61] = molecular target: T61, 4H584-bN
T61 chain: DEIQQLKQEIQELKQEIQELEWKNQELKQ

[62] = molecular target: T62, 4H3631-bN
T62 chain: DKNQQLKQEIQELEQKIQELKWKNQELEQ

[63] = molecular target: T63, 4H850-bN
T63 chain: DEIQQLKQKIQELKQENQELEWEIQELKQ

[64] = molecular target: T64, 4H570-bN
T64 chain: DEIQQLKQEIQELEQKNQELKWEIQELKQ

[65] = molecular target: T65, 4H2673-bA
T65 chain: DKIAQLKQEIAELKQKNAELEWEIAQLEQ

[66] = molecular target: T66, 4H3297-bN
T66 chain: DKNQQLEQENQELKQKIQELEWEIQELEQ

B2: 4H1446-bH (peptide)
chain: DENQELEKKNEELERKIWELEKKIQELKR
interaction score [16]: 0.0116 | interaction score [17]: -0.314 | interaction score [18]: 0.59 | interaction score [19]: -0.635 | interaction score [20]: 0.669 | interaction score [21]: -0.161 | interaction score [22]: 0.741 | interaction score [23]: 0.818 | interaction score [24]: 0.727 | interaction score [25]: 0.0836 | interaction score [26]: 0.347 | interaction score [27]: -2.02 | interaction score [28]: -0.404 | interaction score [29]: 0.679 | interaction score [30]: 1.3 | interaction score [31]: -0.157 | interaction score [32]: 0.34 | interaction score [33]: 0.346 | interaction score [34]: -0.622 | interaction score [35]: 1.08 | interaction score [36]: 2.32 | interaction score [37]: 0.821 | interaction score [38]: -0.466 | interaction score [39]: -1.41 | interaction score [40]: -0.704 | interaction score [41]: 0.933 | interaction score [42]: 0.109 | interaction score [43]: -0.67 | interaction score [44]: -0.325 | interaction score [45]: 0.731 | interaction score [46]: -2.01 | interaction score [47]: 0.981 | interaction score [48]: 0.624 | interaction score [49]: -1.86 | interaction score [50]: 1.32 | interaction score [51]: 1.24 | interaction score [52]: 0.0186 | interaction score [53]: -0.551 | interaction score [54]: 0.192 | interaction score [55]: 1.17

B4: 4H1828-bH (peptide)
chain: DENQELKKKIEELERKIWELEKENQELKR
interaction score [16]: -0.478 | interaction score [17]: 0.369 | interaction score [18]: -1.69 | interaction score [19]: 0.163 | interaction score [21]: -0.285 | interaction score [22]: 0.484 | interaction score [23]: 0.672 | interaction score [26]: -0.438 | interaction score [27]: -1.34 | interaction score [29]: -0.147 | interaction score [31]: 0.102 | interaction score [32]: 0.0964 | interaction score [33]: -0.867 | interaction score [34]: -2.38 | interaction score [65]: -3.95 | interaction score [38]: 0.474 | interaction score [39]: 0.157 | interaction score [66]: -1.01 | interaction score [41]: 0.362 | interaction score [42]: 0.147 | interaction score [43]: 0.767 | interaction score [44]: -0.675 | interaction score [45]: 0.0564 | interaction score [47]: 0.741 | interaction score [48]: 0.57 | interaction score [50]: -0.37 | interaction score [51]: 0.309 | interaction score [52]: 0.204 | interaction score [53]: 1.08 | interaction score [54]: -0.21 | interaction score [55]: 1.16

Other lines, results leading:

interaction score [1]: 1.74 | interaction score [2]: -1.28 | interaction score [3]: 0.945 | interaction score [4]: 0.6 | interaction score [5]: 0.88 | interaction score [6]: -0.395 | interaction score [7]: 0.636 | interaction score [8]: 1.79 | interaction score ([9]; mean of both orientations): 0.0957 | interaction score [10]: -0.577 | interaction score [11]: -1.3 | interaction score [12]: -0.944 | interaction score [13]: 0.923 | interaction score [14]: 0.0908 | interaction score [15]: 0.126
B1: O10-bA (peptide)
chain: DKNAQLKQENAELEQKIAELKWKIAQLKQ

interaction score [56]: -1.15 | interaction score [57]: -0.125 | interaction score [58]: -0.252 | interaction score [59]: -0.602 | interaction score [9]: 0.22 | interaction score [60]: -0.31 | interaction score [61]: 0.98 | interaction score [62]: -0.0832 | interaction score [63]: -1.06 | interaction score [64]: -1.51
B3: 4H3631-bN (peptide)
chain: DKNQQLKQEIQELEQKIQELKWKNQELEQ

— paper PMC10397247
